Several values for one entry are separate records, joined by “and”; a condition that tells them apart may be missing. Identical values can stand only once.
Key:
[1] = target: T1, AtNDK1 (Arabidopsis nucleoside diphosphate kinase 1) (Arabidopsis thaliana, UniProt P39207); assay: NDK assay, ATP formation by ATP determination kit; type: biochemical
T1 construct: gene NDK1; full open reading frame in pGEX6P-1 (BamHI/EcoRI, synthetic), GST tag cut with PreScission protease, E. coli T7 Express, size exclusion purified, hexamer
T1 sequence (P39207 1-149): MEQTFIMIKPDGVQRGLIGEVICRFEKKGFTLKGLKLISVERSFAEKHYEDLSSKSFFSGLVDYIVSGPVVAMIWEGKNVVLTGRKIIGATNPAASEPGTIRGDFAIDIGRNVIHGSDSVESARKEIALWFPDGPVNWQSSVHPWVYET

[2] = target: T1, AtNDK1 (Arabidopsis nucleoside diphosphate kinase 1); assay: NDK assay, ATP formation by ATP determination kit; type: biochemical; conditions: substrate inhibition by ADP (fit of Michaelis-Menten data with 0-100 μM ADP); 50 μM GTP; 2 mM MgCl2, pH 7.6, 25 °C
[3] = substrate: Nc1nc2c(ncn2[C@@H]2O[C@H](COP(=O)(O)OP(=O)(O)OP(=O)(O)O)[C@@H](O)[C@H]2O)c(=O)[nH]1; assay: NDK assay, ATP formation by ATP determination kit; type: biochemical, Arabidopsis thaliana; conditions: 35 μM ADP fixed, 0-100 μM GTP, 2 mM MgCl2, pH 7.6, 25 °C
[4] = substrate: Nc1ncnc2c1ncn2[C@@H]1O[C@H](COP(=O)(O)OP(=O)(O)O)[C@@H](O)[C@H]1O; assay: NDK assay, ATP formation by ATP determination kit; type: biochemical, Arabidopsis thaliana; conditions: 50 μM GTP fixed, 0-100 μM ADP, substrate inhibition model, 2 mM MgCl2, pH 7.6, 25 °C
[5] = target: the molecule itself; assay: SEC; analytical SEC, Superose 6 increase 10/300 GL; 30 mM Tris pH 7.9, 200 mM NaCl, 1 mM DTT, 1 mM EDTA; sample ~1 mg/mL, 100 uL injected; size and oligomeric state approximated from retention volume and a standard curve; self-association (hexamer, dimer)
[6] = target: the molecule itself; assay: as above; remark: listed apart in the source

Molecule | IC50 [1] [nM] | Ki [2] [nM] | Km [3] [µM] | Km [4] [µM] | stoichiometry N [5] | relative absorbance maximum of the (AtNDK1)2 peak [6] | relative absorbance maximum of the (AtNDK1)6 peak [6]
Nc1nc2c(ncn2[C@@H]2O[C@H](COP(=O)(O)OP(=O)(O)OP(O)(O)=S)[C@@H](O)[C@H]2O)c(=O)[nH]1 [GTPγS, guanosine 5′-O-[γ-thio] triphosphate] | 681 |  |  |  |  |  | 
Nc1ncnc2c1ncn2[C@@H]1O[C@H](COP(=O)(O)OP(=O)(O)O)[C@@H](O)[C@H]1O [ADP] |  | 132000 |  |  |  |  | 
Arabidopsis thaliana nucleoside diphosphate kinase 1 (AtNDK1), wild-type (enzyme, UniProt P39207 1-149, looked up, Arabidopsis thaliana NDK1, open reading frame cloned into BamHI/EcoRI of pGEX6P-1; Hexamer by analytical SEC; also called WT AtNDK1; Arabidopsis NDK1; source: E. coli T7 express, purified (GSTrap, PreScission cleavage, glutathione agarose, SEC); not shown: GST, N-terminal, cleaved) MEQTFIMIKPDGVQRGLIGEVICRFEKKGFTLKGLKLISVERSFAEKHYEDLSSKSFFSGLVDYIVSGPVVAMIWEGKNVVLTGRKIIGATNPAASEPGTIRGDFAIDIGRNVIHGSDSVESARKEIALWFPDGPVNWQSSVHPWVYET |  |  | 22.4 | 24.6 | 6 | 0.1 | 1
AtNDK1-K9R (enzyme, Arabidopsis thaliana, UniProt P39207 1-149, looked up, Arabidopsis thaliana NDK1, mutant open reading frame cloned into BamHI/EcoRI of pGEX6P-1; Elutes as a mix of hexamer and dimer by analytical SEC; source: E. coli T7 express, purified (GSTrap, PreScission cleavage, glutathione agarose, SEC); not shown: GST, N-terminal, cleaved) MEQTFIMIRPDGVQRGLIGEVICRFEKKGFTLKGLKLISVERSFAEKHYEDLSSKSFFSGLVDYIVSGPVVAMIWEGKNVVLTGRKIIGATNPAASEPGTIRGDFAIDIGRNVIHGSDSVESARKEIALWFPDGPVNWQSSVHPWVYET |  |  |  |  | 6 and 2 | 0.25 | 1
AtNDK1-K9A (enzyme, Arabidopsis thaliana, UniProt P39207 1-149, looked up, Arabidopsis thaliana NDK1, mutant open reading frame cloned into BamHI/EcoRI of pGEX6P-1; Elutes as a mix of hexamer and dimer by analytical SEC; source: E. coli T7 express, purified (GSTrap, PreScission cleavage, glutathione agarose, SEC); not shown: GST, N-terminal, cleaved) MEQTFIMIAPDGVQRGLIGEVICRFEKKGFTLKGLKLISVERSFAEKHYEDLSSKSFFSGLVDYIVSGPVVAMIWEGKNVVLTGRKIIGATNPAASEPGTIRGDFAIDIGRNVIHGSDSVESARKEIALWFPDGPVNWQSSVHPWVYET |  |  |  |  | 6 and 2 | 0.73 | 1
AtNDK1-K9E (enzyme, Arabidopsis thaliana, UniProt P39207 1-149, looked up, Arabidopsis thaliana NDK1, mutant open reading frame cloned into BamHI/EcoRI of pGEX6P-1; Elutes as a mix of hexamer and dimer by analytical SEC, dimer peak the larger; source: E. coli T7 express, purified (GSTrap, PreScission cleavage, glutathione agarose, SEC); not shown: GST, N-terminal, cleaved) MEQTFIMIEPDGVQRGLIGEVICRFEKKGFTLKGLKLISVERSFAEKHYEDLSSKSFFSGLVDYIVSGPVVAMIWEGKNVVLTGRKIIGATNPAASEPGTIRGDFAIDIGRNVIHGSDSVESARKEIALWFPDGPVNWQSSVHPWVYET |  |  |  |  | 6 and 2 | 1 | 0.4

From PMC10815852, “A Non-Functional Carbon Dioxide-Mediated Post-Translational Modification on Nucleoside Diphosphate Kinase of Arabidopsis thaliana” (International Journal of Molecular Sciences, 2024)
